Reference: a protein production outcome set (Wang et al. 2014)

Test: label from the status in PepcDB records

Sequence | protein production
MPCTPDTTSHPCFTEKAAQSCGRVHLPVAPKCNVLCGYCNRKYDCVNESRPGVTSGVLTPAQAADYLDRVLEREPAIRVAGIAGPGDPMANAAATLETLRLIRQRHPDMLFCLSSNGLGMPPHLDALAANGVTHATLTINAVDPDISARLYTWVRDGKVVWRGRPAAELMLERQLTALTGLVQRGIVVKVNTILVPGINDGHVEQVAEKVAALGATLMNIIPLHPTHDTPLAQVAEPSPEAVGEARRLAGAHIRQMTHCRRCRADAVGLLHHDRSRELAPLLRECAQKDDGAGARPFVAVATREGMLVNQHLGEATRLQIWGLGPARSGKGGTTTGGEAASGRNDAKGTGSGDVPGSTGGNSWGKAGATPWDSEEDKNDKRTDSTGSTGGDSGAVCGTTHGTTCGKDATRAGTDATDMPVPVLLEERATPRPGCGPERWHALADMLKDCRAVLTAACGESPRAILREHGITVTECAGIVEDVVGAVLAGLDVNAFRARKGGVSKGCCRGGGDGC | failed
MPDGWRKMGVLVFYDLPVVSPEQRLAAVRFHKFLLADGFERMHYSIYARYCGSMERAATYERRVEQALPAVGHVNLLKLTDRQMVGMRKWIRGNYRAPENAEFVPPAQYQLFLEHHHHHH | failed
MPDIAVLVKASLNPDMARIGPDDSVDLNSIPLKISDIDRNAVEEAVKLKEKLGGKLYAVSVLTWGPVKLRNKDLRLAVQEALAKGVDEAIVVADDELTPGDQTTTAKAIKAALEKHGVKPELILAGEATIDEVTSQVPGRLASLLGYKYLSFVRKLDVDNGRIIAERDLEDYIEVVEASLPAVVSVTQEINEPRPPTLLQIRRAARKPVKEYSASELENVGKPVRRIVQIRGVQVKRKQQIIEGDNLEEIAEKLIEALAREGVLKL | failed
MPDINESMLNQFRPVIRRFIDPIADRIALPADYITLTGFLVACAASAGYASGSLITGAALLAASGFIDVLDGAVARRRFRPTAFGGFLDSTLDRLSDGIIIIGITAGGFTGLLTGLLALHSGLMVSYVRARAESLGIECAVGIAERAERIIIILAGSLAGYLIHPWFMDAAIIVLAALGYFTMIQRMIYVWQRLK | failed
MPDKKREVSLSHRLQEVASFVPKGARLLDVGSDHAYLPIYLLEQGLIDFAVAGEIIKGPYESAVANVSESELSGQIAVRLADGLAALNDNDDIDLITICGMGGRLIADILAAGSDKLNSVKQLILQPNNCEDDLRSWLVANDFMIKAEKMVKDRHKYYEILVVEKGKITLSDKDLRFGPFLRQERSSIFKERWRKELAKLELALTKVPAKKKADNMFLSTKIEQIKEVLYES | not failed
MPDSPLPLYHKVYLLLKQRLQSGGFALNAAMPGENALAAEYGVSRLTIRRSLEALESEGLIERRQGRGTFAAEGAILSAPQHSADIDTLMAHLARMGMHTQVNLLELDTVPATPQVAAQLELPAGAPVQRAVRVRSHQGLPFSYLVTYVPGEIGQRIRREDLGAKPLLAIFRDLGVRVARAQQSISAVLAEPGTAGALDVPVGSALLSLQRLVRDDAGRPVEWLHALYRPDRYEYRLDMQAHDTPGQPTWLPAGAPRRA | failed
MPDTPAEGYGNTLSSLALDHNWRTIYPLGAYQLSGLAWVDPQALWLRQLPRLPFCQATLGASFLALDRVRGFILLINGENDHSEILNPYDLEPFLDANGLCLYRETLWFCRDTWLYRCHLPDWHVEKMLECRYPIYGVAVDETGIYVACQKSGYIHCFDETGREQYRLSAPGIGCENLALKDGYLWVSDRLEQSIYCLDRHSGHVEWVALTPFAQPTAFTFDATGQLWVAYGGEEAYLRDNPNNREAPLEIDYRDICLIHPLLYHTHREQHYTLSNGYLIEMAYVEELSPLDALHLDNLEWRIALPANSPRQKLLRVEPVGTPFRLETVADQQVAVFDFPELRPYEARLFGWRAWLEVRGMKYHLSFDNIDETQPLPSEFAAQYLVDNDELAMDQPIVQEAAREAVGTETNILRKMLKIRNYVYDRLSYAMRPTIETPDVVLKRGTGSCGEYVGVLLALARLNGIACRTVGRYKCPPYPQKRGIPLQPTYNHVWLEFYVPGVGWVPMESNPDDVVERGPYPTRFFMALPWYHVEVGKGIRFETTNYRDRGVRLGDLALNHVRFTIHSELPPLLLEHHHHHH | failed
MPEHTPAPTPHRAVYGFAFYMLFTVLFLVYVTWALLPVEFGLHSYLPDKYFAVFVPFLVLVFAWFFAFLIYPAINLSMTVDVDSIASVVDPKLALPKGTEFTSWSQLQKGKVSQDSASKKASPVNCNLCRTFHQPVTRAPIPPLRFLDLQEVNTAYYN | failed
MPEITLNCQKLPCPQPVLRCKALLDTEAPARCTVTVDNAPASENVARFLTSRGYDTSVHADPEGLWNIIAVRKDSAVAPSCDCEVMDARGIAAIAGTAEMPQKVTVFITSETLGSGDDVLGGKLMANFLATLPELGDELWRIVCVNGGVRLATREHPAVTHLNKLEAMGVDILVCGTCLDHFGLLSEKAVGQTTNMLDVVTSLQLATKVIRPLEHHHHHH | not failed
MPEKKPVTAENSVGIDLGIEKFAILSDGIAVENPRFIKRVEKRIKKLQKQISRKKKGSKNYEKQKIRIQKKYRKLRNLRDDFHDKVSTAIAKRYDTIFIEDLNVRGMQRNHHLARSITDVSFYSFKEKLKWKADRYGKNLIEIGRFDPSSKLCSRCGNIKKDLKLSDRVYSCDACGLTIDRDYNASLDIRKIGLVKVGLVPPEFTPVEIATSGLDGIYPYRQMSVGESGRSEASAEELEHHHHHH | failed
MPESRTVALVTLGCARNEVDSEELAGRLEADGWKLVDDAEEADVAVVNTCGFVEAAKKDSVDALLEANDLKGHGRTQAVVAVGCMAERYGKELADALPEADGVLGFDDYADISDRLQTILNGGIHAAHTPRDRRKLLPISPAERQEAGAAVALPGHGPTDLPEGVAPASGPRAPLRRRLDGSPVASVKLASGCDRRCSFCAIPSFRGSFISRRPSDVLNETRWLAEQGVKEIMLVSENNTSYGKDLGDIRLLESLLPNLAEVDGIERVRVSYLQPAEMRPGLIDVLTSTEKVAPYFDLSFQHSAPNVLRAMRRFGDTDRFLELLDTIRSKAPEAGVRSNFIVGFPGESEADLAELERFLNHARLDAIGVFGYSDEEGTEAATYGDKLDEDVVAERLARVSRLAEELVSQRADERVGATVRVLVESVDPAGEGDGVRGRAEHQAPETDGQVLLTSGAGLSVGRMVDAKVVGTEGVDLVAEPLLGSPEWSEEAGRLEHHHHHH | failed
MPEYSSVTGLEGVKFAPLKKENGFYVATKIIDYPYAINAKVNTETSTEKQYADNKLVDMAVTTGSTKLELEMRDLPMEILEELFGIEETDGIYMFKKNVIAPWVAMSFYGPKANGKNRHVGLVKGRFSLPDDEWKTKEEKTDFQTVKLSAEFMEREQDNAYKVLADEDAPNFNLDKFYEKVFGNAYKNPLEHHHHHH | not failed
MPFGYGLSYGTDFSQEIVSTEQNEDSVTLKVHAANNGTKAGKDVVQVYYNPPYTDFDAKNSIEKSTVNLIAFEKTDDIQPGAAQDITVTVTKEDMASYSYAHENSDGTKGAYLLEQGDYALSINKTAHEEYQSVTVNVPQTIWYDNDNPRQSDKDGQAILDDQGDPTNEPANGDTFKAASNLFQDMTDHMSKTSQLTRANGALSNTATFPTKEEMADISAAFNAKTDDEGRLILQQMDLDTDTTLGNTAGSKVYTTEKPTSNADNGLTLSDLRGVDFNDTKWDQLLDQLEWPSRMPE | failed
